Laboratory results published in patent US6774220B1, “Compounds having lectinic properties and their biological applications” (Association pour le Développement de la Biothérapie …, priority 1995, dated 2004).

Experiments:
Assay type in all cases: binding
[1] = target: oligopeptide 81-95 (SEQ ID NO: 6) (Homo sapiens, UniProt P08729); assay: Antibody titre against oligopeptide antigen 81-95
Source text: (§1) By operating according to standard techniques, the formation of antibodies against the SEQ ID NO: 5 peptides or SEQ ID NO:6 is induced. The specific characters of these antibodies is set out in Table 7.

[2] = target: oligopeptide 41-55 (SEQ ID NO: 5) (Homo sapiens, UniProt P08729); assay: Antibody titre against oligopeptide antigen 41-55
Source text: as §1

[3] = test system: Ost. Sarc. ESS (SCLs excreted by the osteogenic sarcoma ESS); assay: Antibody titre against SCL excreted by osteogenic sarcoma ESS
Source text: as §1

Substance	antibody titre, oligopeptide 81-95 as antigen [1]	antibody titre, oligopeptide 41-55 as antigen [2]	antibody titre, Ost. Sarc. ESS as antigen [3]
41-55 (GLGASRPRVAVRSAY)	<200	>12 600	>12 800
81-95 (DPFSQRVRQEESEQI)	>12 800	<200	–
